Experimental data from patent US20180185450A1 (Sanofi, published 2018).
Numbered stars: 1 amine (or outer) side, 2 acyl side, 3 side chain; on linkers, the order of the positions; unused ones are H or OH. Square brackets hold non-standard residues; d marks the D form. Side chains are listed from the residue outwards. Ends that are not written are not given here. γGlu = O=C(O)[C@H](CCC(=O)[*:2])N[*:1]; x53 = not defined here; Aib = CC(C)(N)C(=O)O

Experiments:
human GLP-1 receptor = human GLP-1 receptor (human, UniProt P43220 24-463); assay: cell-based or functional assay
human glucagon receptor = human glucagon receptor (human, UniProt P47871 26-477); assay: cell-based or functional assay
Sequence of human glucagon receptor (P47871 26-477): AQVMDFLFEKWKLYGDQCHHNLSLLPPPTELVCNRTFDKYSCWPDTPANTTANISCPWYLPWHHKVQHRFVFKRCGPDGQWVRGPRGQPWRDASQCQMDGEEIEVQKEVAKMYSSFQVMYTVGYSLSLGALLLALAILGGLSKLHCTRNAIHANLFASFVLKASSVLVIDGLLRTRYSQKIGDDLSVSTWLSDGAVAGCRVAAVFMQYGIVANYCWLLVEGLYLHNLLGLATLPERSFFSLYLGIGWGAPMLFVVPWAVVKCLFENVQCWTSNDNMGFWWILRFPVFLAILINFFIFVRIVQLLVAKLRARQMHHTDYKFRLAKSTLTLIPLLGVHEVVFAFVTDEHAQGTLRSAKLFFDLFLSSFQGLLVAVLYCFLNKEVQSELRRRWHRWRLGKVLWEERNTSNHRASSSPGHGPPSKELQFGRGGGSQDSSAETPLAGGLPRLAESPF

HXQGTFTSDLSKQKDSRRAQDFIEWLKNGGPSSGAPPPS (dSer at 2; K(γE-x53) at 14; C-terminal NH(benzyl)) [SEQ ID NO: 99]
EC50 hGLP-1R (cAMP) (human GLP-1 receptor): 15.9 pM
EC50 hGlucagon-R (cAMP) (human glucagon receptor): 2.6 pM

HXQGTFTSDLSKQKDSRRAQDFIEWLKNGGPSSGAPPPS (dSer at 2; K(γE-x53) at 14; C-terminal NH[(CH2)12-OH]) [SEQ ID NO: 107]
EC50 hGLP-1R (cAMP) (human GLP-1 receptor): 188 pM
EC50 hGlucagon-R (cAMP) (human glucagon receptor): 37.8 pM

HXQGTFTSDLSKQKESRRAQDFIEWLKNGGPSSGAPPPK (dSer at 2; K(γE-x53) at 14; C-terminal NH2) [SEQ ID NO: 113]
EC50 hGLP-1R (cAMP) (human GLP-1 receptor): 11.4 pM
EC50 hGlucagon-R (cAMP) (human glucagon receptor): 5.4 pM

HXQGTFTSDLSKQKDSRRAQDFIEWLKNGGPSSGAPPPS (dSer at 2; K(γE-x53) at 14; C-terminal NH[(CH2)15-CH3]) [SEQ ID NO: 106]
EC50 hGLP-1R (cAMP) (human GLP-1 receptor): 210 pM
EC50 hGlucagon-R (cAMP) (human glucagon receptor): 10.5 pM

HXQGTFTSDLSKQKDSRRAQDFIEWLKNGGPSSGAPPPS (dSer at 2; K(γE-x53) at 14; C-terminal NH[(CH2-CH2-O)4-CH2-CH2-COOH]) [SEQ ID NO: 104]
EC50 hGLP-1R (cAMP) (human GLP-1 receptor): 6.5 pM
EC50 hGlucagon-R (cAMP) (human glucagon receptor): 1.1 pM

HXQGTFTSDLSKQKDSKAAQDFIEWLKAGGPSSGAPPPS (dSer at 2; K(γE-γE-x53) at 14; C-terminal NH2) [SEQ ID NO: 140]
EC50 hGLP-1R (cAMP) (human GLP-1 receptor): 1.3 pM
EC50 hGlucagon-R (cAMP) (human glucagon receptor): 1.5 pM

HXQGTFTSDLSKQKESRRAQDFIEWLKRXGPSSGAPPPS (dSer at 2; K(γE-x53) at 14; dAla at 29; C-terminal NH2) [SEQ ID NO: 126]
EC50 hGLP-1R (cAMP) (human GLP-1 receptor): 6.6 pM
EC50 hGlucagon-R (cAMP) (human glucagon receptor): 6.8 pM

HXQGTFTSDLSKQKDSQAAQDFIEWLKRGGPSSGAPPPS (dSer at 2; K(γE-x53) at 14; C-terminal NH2) [SEQ ID NO: 123]
EC50 hGLP-1R (cAMP) (human GLP-1 receptor): 2.6 pM
EC50 hGlucagon-R (cAMP) (human glucagon receptor): 9.7 pM

HXQGTFTSDLSKQKESRRAQDFIEWLKNGGPSSGAPPPK (dSer at 2; K(x53) at 14; C-terminal NH2) [SEQ ID NO: 114]
EC50 hGLP-1R (cAMP) (human GLP-1 receptor): 62.3 pM
EC50 hGlucagon-R (cAMP) (human glucagon receptor): 31.1 pM

HXQGTFTSDLSKQKDSRRAQDFIEWLKNGGPSSGAPPPS (dSer at 2; K(γE-x53) at 14; C-terminal NH[(CH2)13-CH3]) [SEQ ID NO: 110]
EC50 hGLP-1R (cAMP) (human GLP-1 receptor): 213 pM
EC50 hGlucagon-R (cAMP) (human glucagon receptor): 7.2 pM

HXQGTFTSDLSKQKDSRRAXDFIEWLKNGGPSSGAPPPS (dSer at 2; K(γE-x53) at 14; Aib at 20; C-terminal NH2) [SEQ ID NO: 118]
EC50 hGLP-1R (cAMP) (human GLP-1 receptor): 15.3 pM
EC50 hGlucagon-R (cAMP) (human glucagon receptor): 4.3 pM

HXQGTFTSDLSKQKESRRAQDFIEWLKNGGPSSGAPPPS (dSer at 2; K(γE-x53) at 14; C-terminal NH2) [SEQ ID NO: 116]
EC50 hGLP-1R (cAMP) (human GLP-1 receptor): 6 pM
EC50 hGlucagon-R (cAMP) (human glucagon receptor): 3.6 pM

HXQGTFTSDLSKQKESRRAQDFIEWLKRGGPSSGAPPPS (dSer at 2; K(γE-x53) at 14; C-terminal NH2) [SEQ ID NO: 127]
EC50 hGLP-1R (cAMP) (human GLP-1 receptor): 14.7 pM
EC50 hGlucagon-R (cAMP) (human glucagon receptor): 9.4 pM

HXQGTFTSDLSKQKDSRRAQDFIEWLKNGGPSSGAPPPS (dSer at 2; K(γE-x53) at 14; C-terminal NH[(CH2-CH2-O)24-CH2-CH2-COOH]) [SEQ ID NO: 105]
EC50 hGLP-1R (cAMP) (human GLP-1 receptor): 7.9 pM
EC50 hGlucagon-R (cAMP) (human glucagon receptor): 1 pM

HXQGTFTSDLSKQKDSRRAQDFIEWLKNGGPSSGAPPPS (dSer at 2; K(γE-x53) at 14; C-terminal N(diethyl)) [SEQ ID NO: 101]
EC50 hGLP-1R (cAMP) (human GLP-1 receptor): 9.8 pM
EC50 hGlucagon-R (cAMP) (human glucagon receptor): 1.7 pM

HXQGTFTSDLSKQKDSRRAQDFIEWLKNGGPSSGAPPPS (dSer at 2; K(γE-x53) at 14; C-terminal NH[(CH2)14-CH3]) [SEQ ID NO: 108]
EC50 hGLP-1R (cAMP) (human GLP-1 receptor): 197 pM
EC50 hGlucagon-R (cAMP) (human glucagon receptor): 9 pM

HXQGTFTSDLSKQKDSRRAQDFIEWLKNGGPSSGAPPPS (dSer at 2; K(γE-x53) at 14; C-terminal NH(CH2-CF3)) [SEQ ID NO: 103]
EC50 hGLP-1R (cAMP) (human GLP-1 receptor): 10.1 pM
EC50 hGlucagon-R (cAMP) (human glucagon receptor): 1.7 pM

HXQGTFTSDLSKQKDSRRAQDFIEWLKNGGPSSGAPPPS (dSer at 2; K(γE-x53) at 14; C-terminal NH[(CH2)17-CH3]) [SEQ ID NO: 109]
EC50 hGLP-1R (cAMP) (human GLP-1 receptor): 430 pM
EC50 hGlucagon-R (cAMP) (human glucagon receptor): 28.6 pM

HXQGTFTSDLSKQKESRAAXLFIEWLKNGGPSSGAPPPS (dSer at 2; K(γE-x53) at 14; Aib at 20; C-terminal NH2) [SEQ ID NO: 121]
EC50 hGLP-1R (cAMP) (human GLP-1 receptor): 6.1 pM
EC50 hGlucagon-R (cAMP) (human glucagon receptor): 23.7 pM

HXQGTFTSDLSKQKESRAAXLFIEWLKNGGPSSGAPPPS (dSer at 2; K(x53) at 14; Aib at 20; C-terminal NH2) [SEQ ID NO: 122]
EC50 hGLP-1R (cAMP) (human GLP-1 receptor): 24.9 pM
EC50 hGlucagon-R (cAMP) (human glucagon receptor): 156 pM

HXQGTFTSDLSKQKDSQAAQDFIEWLKRAGPSSGAPPPS (dSer at 2; K(γE-x53) at 14; C-terminal NH2) [SEQ ID NO: 124]
EC50 hGLP-1R (cAMP) (human GLP-1 receptor): 3 pM
EC50 hGlucagon-R (cAMP) (human glucagon receptor): 8.4 pM

HXQGTFTSDLSKQKESXAAQDFIEWLKAGGPSSGAPPPS (dSer at 2; K(γE-x53) at 14; Aib at 17; C-terminal NH2) [SEQ ID NO: 14]
EC50 hGLP-1R (cAMP) (human GLP-1 receptor): 4.6 pM
EC50 hGlucagon-R (cAMP) (human glucagon receptor): 94.7 pM

HXQGTFTSDLSKQKDSRRAQDFIEWLKNGGPSSGAPPPS (dSer at 2; K(γE-x53) at 14; C-terminal NH(tert.butyl)) [SEQ ID NO: 100]
EC50 hGLP-1R (cAMP) (human GLP-1 receptor): 13.5 pM
EC50 hGlucagon-R (cAMP) (human glucagon receptor): 2 pM

HXQGTFTSDLSKQKDSRRAQDFIEWLKSGGPSSGAPPPS (dSer at 2; K(γE-x53) at 14; C-terminal NH2) [SEQ ID NO: 128]
EC50 hGLP-1R (cAMP) (human GLP-1 receptor): 6.2 pM
EC50 hGlucagon-R (cAMP) (human glucagon receptor): 1.6 pM

HXQGTFTSDLSKQKDSRRAQDFIEWLKNGGPSSGAPPPS (dSer at 2; K(γE-x53) at 14; C-terminal N(morpholin)) [SEQ ID NO: 102]
EC50 hGLP-1R (cAMP) (human GLP-1 receptor): 7.2 pM
EC50 hGlucagon-R (cAMP) (human glucagon receptor): 1.1 pM

HXQGTFTSDLSKQKESRRAQDFIEWLKSGGPSSGAPPPS (dSer at 2; K(γE-x53) at 14; C-terminal NH2) [SEQ ID NO: 129]
EC50 hGLP-1R (cAMP) (human GLP-1 receptor): 14.8 pM
EC50 hGlucagon-R (cAMP) (human glucagon receptor): 4.1 pM

HXQGTFTSDLSKQKESRRAXDFIEWLKNGGPSSGAPPPS (dSer at 2; K(x53) at 14; Aib at 20; C-terminal NH2) [SEQ ID NO: 119]
EC50 hGLP-1R (cAMP) (human GLP-1 receptor): 30.8 pM
EC50 hGlucagon-R (cAMP) (human glucagon receptor): 41.2 pM

HXQGTFTSDLSKQKESXAAXLFIEWLKAGGPSSGAPPPS (dSer at 2; K(γE-x53) at 14; Aib at 17; Aib at 20; C-terminal NH2) [SEQ ID NO: 12]
EC50 hGLP-1R (cAMP) (human GLP-1 receptor): 4.6 pM
EC50 hGlucagon-R (cAMP) (human glucagon receptor): 263 pM

HXQGTFTSDLSKQKESXAAQLFIEWLKAGGPSSGAPPPS (dSer at 2; K(GABA-x70) at 14; Aib at 17; C-terminal NH2) [SEQ ID NO: 131]
EC50 hGLP-1R (cAMP) (human GLP-1 receptor): 9.1 pM
EC50 hGlucagon-R (cAMP) (human glucagon receptor): 24.9 pM

HXQGTFTSDLSKQKESRRAQDFIEWLKNGGPSSGAPPPSK (dSer at 2; K(γE-x53) at 14; C-terminal NH2) [SEQ ID NO: 111]
EC50 hGLP-1R (cAMP) (human GLP-1 receptor): 8.1 pM
EC50 hGlucagon-R (cAMP) (human glucagon receptor): 2.5 pM

HXQGTFTSDLSKQKESRRAQDFIEWLKNGGPSSGAPPPSK (dSer at 2; K(x53) at 14; C-terminal NH2) [SEQ ID NO: 112]
EC50 hGLP-1R (cAMP) (human GLP-1 receptor): 33.6 pM
EC50 hGlucagon-R (cAMP) (human glucagon receptor): 21.1 pM

H[Aib]QGTFTSDLSKQK([γGlu-x53])ES[Aib]AAQDFIEWLKAGGPSSGAPPPS-NH2 (reading uncertain) [SEQ ID NO: 13]
EC50 hGLP-1R (cAMP) (human GLP-1 receptor): 3.1 pM
EC50 hGlucagon-R (cAMP) (human glucagon receptor): 281 pM

H[Aib]QGTFTSDLSKQK([γGlu-x53])ESRRAQDFIEWLKNGGPSSGAPPPS-NH2 (reading uncertain) [SEQ ID NO: 117]
EC50 hGLP-1R (cAMP) (human GLP-1 receptor): 3.8 pM
EC50 hGlucagon-R (cAMP) (human glucagon receptor): 16.5 pM

HXHGTFTSDLSKQKDSKAAQLFIEWLKAXGPSSGAPPPS (dSer at 2; K(γE-X70) at 14; dAla at 29; C-terminal NH2) [SEQ ID NO: 138]
EC50 hGLP-1R (cAMP) (human GLP-1 receptor): 5.5 pM
EC50 hGlucagon-R (cAMP) (human glucagon receptor): 9.2 pM
